Test results from patent US20120107952A1.

Tests used:
[1] = molecular target: Bovine-biotinamidocaproyl-labeled Albumin (biotinylated-BSA) (bovine) (UniProt P02769); test: MA-SPCL, 33 nM Qdots-streptavidin on biotinylated-BSA coated gold disk, in serum, 655 nm, 217 degrees
[2] = molecular target: Bovine-biotinamidocaproyl-labeled Albumin (biotinylated-BSA) (bovine) (UniProt P02769); test: MA-SPCL, 33 nM Qdots-streptavidin on biotinylated-BSA coated gold disk, in whole blood, 655 nm, 217 degrees
[3] = molecular target: Bovine-biotinamidocaproyl-labeled Albumin (biotinylated-BSA) (bovine) (UniProt P02769); test: MA-SPCL, 33 nM Qdots-streptavidin on biotinylated-BSA coated gold disk, emission at 217 degrees; similar after 30 min at room temperature

Sequence of UniProt P02769 (P02769 25-607 limits assumed): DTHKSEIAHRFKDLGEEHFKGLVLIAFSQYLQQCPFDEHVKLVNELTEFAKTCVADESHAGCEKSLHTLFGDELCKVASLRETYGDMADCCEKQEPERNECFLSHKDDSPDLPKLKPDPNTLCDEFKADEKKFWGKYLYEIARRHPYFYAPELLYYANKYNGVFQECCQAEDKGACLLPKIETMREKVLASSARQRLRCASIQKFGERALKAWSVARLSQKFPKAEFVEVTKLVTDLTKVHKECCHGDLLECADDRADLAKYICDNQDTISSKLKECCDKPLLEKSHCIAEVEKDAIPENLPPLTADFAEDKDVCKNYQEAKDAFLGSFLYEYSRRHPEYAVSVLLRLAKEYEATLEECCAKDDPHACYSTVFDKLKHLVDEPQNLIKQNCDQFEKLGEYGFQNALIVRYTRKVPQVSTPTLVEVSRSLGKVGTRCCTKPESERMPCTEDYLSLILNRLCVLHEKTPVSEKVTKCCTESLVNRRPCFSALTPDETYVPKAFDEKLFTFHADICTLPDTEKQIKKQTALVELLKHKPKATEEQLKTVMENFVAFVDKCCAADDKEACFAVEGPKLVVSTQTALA

## Quantum dot 655-labeled streptavidin (Qdots-streptavidin) (from UniProt P22629 37-163)
[1]
  peak luminescence intensity in serum relative to buffer: 75%
[2]
  peak luminescence intensity in whole blood relative to buffer: 20%
[3]
  final luminescence intensity: 150 au
